Measurements as given in patent publication US20230295332A1 (INTERIUS BIOTHERAPEUTICS, published 2023).

T1: human CD7 (human, UniProt P09564 26-240)
T1 sequence: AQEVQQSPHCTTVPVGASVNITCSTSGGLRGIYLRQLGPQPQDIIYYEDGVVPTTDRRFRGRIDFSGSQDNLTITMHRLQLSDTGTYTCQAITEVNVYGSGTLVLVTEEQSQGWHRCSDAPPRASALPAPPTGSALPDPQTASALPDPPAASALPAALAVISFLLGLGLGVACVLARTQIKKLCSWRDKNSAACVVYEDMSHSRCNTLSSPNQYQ

T2: non-human primate CD7 (non-human primate)
T2 chain: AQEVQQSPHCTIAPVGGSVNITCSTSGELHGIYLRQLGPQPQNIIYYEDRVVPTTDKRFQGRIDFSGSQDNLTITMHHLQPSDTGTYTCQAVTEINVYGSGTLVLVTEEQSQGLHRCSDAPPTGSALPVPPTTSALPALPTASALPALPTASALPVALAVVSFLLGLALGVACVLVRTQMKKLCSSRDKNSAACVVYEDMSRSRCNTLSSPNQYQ

B1: CD7 Binder (SEQ ID NO. 52) (scFv)
scFv: QVQLQQPGAELVKPGASVKLSCKASGYPFTSYWIHWVKQRPGRGLEWLGRIDPNSGDTKYNEKFKNKATLTVDKSSTTAYMQLSSLTSEDSAVYYCARSPYYSNDNSMDYWGQGTSVTVSSGGGGSGGGGSGGGGSGGGGSDILLTQSPAILSVSPGERVSFSCRASQSIGTSIHWYQQRTNDSPRLLIKYASESISGIPSRFSGSGSGTDFTLSINSVESEDIADYYCQQSNSWPTTFGGGTKLEIKR
B2: CD7 Binder (SEQ ID NO. 51) (scFv)
scFv: DILLTQSPAILSVSPGERVSFSCRASQSIGTSIHWYQQRTNDSPRLLIKYASESISGIPSRFSGSGSGTDFTLSINSVESEDIADYYCQQSNSWPTTFGGGTKLEIKRGGGGSGGGGSGGGGSGGGGSQVQLQQPGAELVKPGASVKLSCKASGYPFTSYWIHWVKQRPGRGLEWLGRIDPNSGDTKYNEKFKNKATLTVDKSSTTAYMQLSSLTSEDSAVYYCARSPYYSNDNSMDYWGQGTSVTVSS
B3: CD8 Binder (SEQ ID NO. 69) (scFv)
scFv: NIVLTQSPASLAVSLGQRATISCRASESVDGFGNSFMNWYQQKPGQSPKLLIYLASNLESGVPARFSGSGSRTDFTLTIDPVEADDAATYYCQQNNEDPYTFGGGTKLEIKRGGGGSGGGGSGGGGSGGGGSEVQLQQSGPELVKPGASVKISCKASRYTFTDYNLHWVKLSHEKSLEWIGFIYPYNGGTGYNQKFKNKAKLTVDYSSSTAYMELRSLTSVDAAVYYCARDHRYNEGVSFDYWGQGTTLTVSS
B4: CD8 binder of SEQ ID NO: 70 (printed in Table 1 as 'CD7 Binder (SEQ ID NO. 70)') (scFv)
scFv: EVQLQQSGPELVKPGASVKISCKASRYTFTDYNLHWVKLSHEKSLEWIGFIYPYNGGTGYNQKFKNKAKLTVDYSSSTAYMELRSLTSVDAAVYYCARDHRYNEGVSFDYWGQGTTLTVSSGGGGSGGGGSGGGGSGGGGSNIVLTQSPASLAVSLGQRATISCRASESVDGFGNSFMNWYQQKPGQSPKLLIYLASNLESGVPARFSGSGSRTDFTLTIDPVEADDAATYYCQQNNEDPYTFGGGTKLEIKR

Columns and labels:
Assay in all cases: cell-based or functional assay
[1] = target: T1, human CD7
[2] = target: T2, non-human primate CD7
[3] = target: non-human primate CD8 (non-human primate)
[4] = target: human CD8 (human, UniProt P01732 22-235; P10966 22-210)
Chain of human CD8 (P01732 22-235 Y112C limits assumed, chain 1 of 2): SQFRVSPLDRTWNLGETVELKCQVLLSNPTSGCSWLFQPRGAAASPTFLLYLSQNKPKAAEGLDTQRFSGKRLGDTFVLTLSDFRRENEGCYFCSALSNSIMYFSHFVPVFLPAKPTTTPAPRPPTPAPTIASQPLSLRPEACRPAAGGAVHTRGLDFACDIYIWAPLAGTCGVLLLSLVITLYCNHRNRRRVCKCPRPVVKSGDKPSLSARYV
Chain of human CD8 (P10966 other isoform, or with tags, fused parts or gaps limits assumed, chain 2 of 2): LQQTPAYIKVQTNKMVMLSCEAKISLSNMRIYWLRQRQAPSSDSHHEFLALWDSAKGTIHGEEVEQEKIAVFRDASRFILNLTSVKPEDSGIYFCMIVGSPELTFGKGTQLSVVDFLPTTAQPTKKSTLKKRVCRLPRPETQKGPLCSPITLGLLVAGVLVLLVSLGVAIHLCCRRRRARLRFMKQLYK

Binder	Human PBMC Transduction (% positive) [1] [% positive]	NHP PBMC Transduction (% positive) [2] [% positive]	NHP PBMC Transduction (% positive) [3] [% positive]	Human PBMC Transduction (% positive) [4] [% positive]
B1	21.6	5.64		
B2	19.3	2.61		
B3			1.8	4.09
B4			0.76	3.17
